# Test results: patent US20230151373A1, “CHIMERIC POLYPEPTIDE FOR REGULATING IMMUNE CELLS” (STICHTING HET NEDERLANDS KANKER INSTITUUT-ANTONI VAN …, priority 2019, published 2023)
# Target: CD3 ζ chain (phosphorylated ITAMs) of the TCR complex (human) (UniProt P20963)
# Test: cell-based or functional assay
# Sequence of CD3 ζ chain (phosphorylated ITAMs) of the TCR complex (human) (P20963 22-164, one chain of several): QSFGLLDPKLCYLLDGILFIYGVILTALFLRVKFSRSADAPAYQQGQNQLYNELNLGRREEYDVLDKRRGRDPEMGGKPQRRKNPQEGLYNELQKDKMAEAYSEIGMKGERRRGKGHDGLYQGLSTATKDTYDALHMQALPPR
substance,measurement,value
Zap70 2×SH2 domains-PD1 tail fusion protein (from UniProt P43403 1-264; Q15116 192-288),"reduction in percentage responding cells (IFNγ), CDK4 TCR T cells co-cultured with 10 nM peptide loaded T2 cells, relative to vector control",104 fold
same,"reduction in percentage responding cells (IL-2), CDK4 TCR T cells co-cultured with 10 nM peptide loaded T2 cells, relative to vector control",110 fold
same,"reduction in percentage responding cells (TNFα), CDK4 TCR T cells co-cultured with 10 nM peptide loaded T2 cells, relative to vector control",81 fold
same,"reduction in percentage responding cells (cell surface LAMP1), CDK4 TCR T cells co-cultured with 10 nM peptide loaded T2 cells, relative to vector control",40 fold
